Source: patent publication US20230203202A1 (DRAGONFLY THERAPEUTICS, published 2023)

T1: human 5T4 on the cell surface (human, UniProt Q13641 32-420)
T1 construct: whole, on cells; also called h5T4; TPBG
T1 sequence (looked up): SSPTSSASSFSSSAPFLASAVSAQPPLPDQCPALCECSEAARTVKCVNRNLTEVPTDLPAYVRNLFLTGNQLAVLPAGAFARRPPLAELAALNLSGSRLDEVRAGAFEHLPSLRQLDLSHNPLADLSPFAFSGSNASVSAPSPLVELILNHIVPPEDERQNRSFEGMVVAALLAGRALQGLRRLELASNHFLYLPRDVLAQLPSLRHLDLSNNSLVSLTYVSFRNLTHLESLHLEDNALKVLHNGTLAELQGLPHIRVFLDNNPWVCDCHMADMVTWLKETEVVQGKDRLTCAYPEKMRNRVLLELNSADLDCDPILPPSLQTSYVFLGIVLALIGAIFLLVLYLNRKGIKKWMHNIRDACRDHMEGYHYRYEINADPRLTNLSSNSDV


Molecular target: T1, human 5T4 on the cell surface
Assay: cell binding assay on 5T4-expressing tumor cells (cell line not given)

Binder	EC50	Max Fold Over Background (FOB)
AB1882-TriNKET® (bispecific antibody, human IgG1, kappa, F3′ format; also called AB1882-VL-VH TriNKET®; 10F10-IGHV3-48*01 BM1) DIQLTQSPSSLSASVGDRVTITCRASQSVTTSNYNYMHWFQQKPGKAPKLLIKFASNLESGVPSRFSGSGSGTDFTLTISSLQPEDFATYYCQHSWEIPWTFGCGTKVEIKGGGGSGGGGSGGGGSGGGGSEVQLVESGGGLVQPGGSLRLSCAASRFTFSDFGMHWVRQAPGKCLEWVSYISSGSSTIYYADTVKGRFTISRDNAKNSLYLQMNSLRAEDTAVYYCASSQSYYRGTLDYWGQGTTVTVSSGSDKTHTCPPCPAPELLGGPSVFLFPPKPKDTLMISRTPEVTCVVVDVSHEDPEVKFNWYVDGVEVHNAKTKPREEQYNSTYRVVSVLTVLHQDWLNGKEYKCKVSNKALPAPIEKTISKAKGQPREPRVYTLPPCRDELTKNQVSLTCLVKGFYPSDIAVEWESNGQPENNYKTTPPVLVSDGSFTLYSKLTVDKSRWQQGNVFSCSVMHEALHNHYTQKSLSLSPG heavy: EVQLVESGGGLVKPGGSLRLSCAASGFTFSSYSMNWVRQAPGKGLEWVSSISSSSSYIYYADSVKGRFTISRDNAKNSLYLQMNSLRAEDTAVYYCARGAPIGAAAGWFDPWGQGTLVTVSSASTKGPSVFPLAPSSKSTSGGTAALGCLVKDYFPEPVTVSWNSGALTSGVHTFPAVLQSSGLYSLSSVVTVPSSSLGTQTYICNVNHKPSNTKVDKKVEPKSCDKTHTCPPCPAPELLGGPSVFLFPPKPKDTLMISRTPEVTCVVVDVSHEDPEVKFNWYVDGVEVHNAKTKPREEQYNSTYRVVSVLTVLHQDWLNGKEYKCKVSNKALPAPIEKTISKAKGQPREPQVCTLPPSRDELTENQVSLTCLVKGFYPSDIAVEWESNGQPENNYKTTPPVLDSDGSFFLYSWLTVDKSRWQQGNVFSCSVMHEALHNHYTQKSLSLSPG light: DIQMTQSPSSVSASVGDRVTITCRASQGISSWLAWYQQKPGKAPKLLIYAASSLQSGVPSRFSGSGSGTDFTLTISSLQPEDFATYYCQQGVSFPRTFGGGTKVEIKRTVAAPSVFIFPPSDEQLKSGTASVVCLLNNFYPREAKVQWKVDNALQSGNSQESVTEQDSKDSTYSLSSTLTLSKADYEKHKVYACEVTHQGLSSPVTKSFNRGEC	8.55 nM	71.8 fold over background
AB1884-TriNKET® (bispecific antibody, human IgG1, kappa, F3′ format; also called AB1884-VL-VH TriNKET®; 10F10-IGHV3-48*01 BM2) DIQLTQSPSSLSASVGDRVTITCRASQSVTTSNYNYMHWFQQKPGKAPKLLIKFASNLESGVPSRFSGSGSGTDFTLTISSLQPEDFATYYCQHSWEIPWTFGCGTKVEIKGGGGSGGGGSGGGGSGGGGSEVQLVESGGGLVQPGGSLRLSCAASRFTFSDFGMHWVRQAPGKCLEWIAYISSGSSTIYYADTVKGRFTISRDNAKNSLYLQMNSLRAEDTAVYYCASSQSYYRGTLDYWGQGTTVTVSSGSDKTHTCPPCPAPELLGGPSVFLFPPKPKDTLMISRTPEVTCVVVDVSHEDPEVKFNWYVDGVEVHNAKTKPREEQYNSTYRVVSVLTVLHQDWLNGKEYKCKVSNKALPAPIEKTISKAKGQPREPRVYTLPPCRDELTKNQVSLTCLVKGFYPSDIAVEWESNGQPENNYKTTPPVLVSDGSFTLYSKLTVDKSRWQQGNVFSCSVMHEALHNHYTQKSLSLSPG heavy: EVQLVESGGGLVKPGGSLRLSCAASGFTFSSYSMNWVRQAPGKGLEWVSSISSSSSYIYYADSVKGRFTISRDNAKNSLYLQMNSLRAEDTAVYYCARGAPIGAAAGWFDPWGQGTLVTVSSASTKGPSVFPLAPSSKSTSGGTAALGCLVKDYFPEPVTVSWNSGALTSGVHTFPAVLQSSGLYSLSSVVTVPSSSLGTQTYICNVNHKPSNTKVDKKVEPKSCDKTHTCPPCPAPELLGGPSVFLFPPKPKDTLMISRTPEVTCVVVDVSHEDPEVKFNWYVDGVEVHNAKTKPREEQYNSTYRVVSVLTVLHQDWLNGKEYKCKVSNKALPAPIEKTISKAKGQPREPQVCTLPPSRDELTENQVSLTCLVKGFYPSDIAVEWESNGQPENNYKTTPPVLDSDGSFFLYSWLTVDKSRWQQGNVFSCSVMHEALHNHYTQKSLSLSPG light: DIQMTQSPSSVSASVGDRVTITCRASQGISSWLAWYQQKPGKAPKLLIYAASSLQSGVPSRFSGSGSGTDFTLTISSLQPEDFATYYCQQGVSFPRTFGGGTKVEIKRTVAAPSVFIFPPSDEQLKSGTASVVCLLNNFYPREAKVQWKVDNALQSGNSQESVTEQDSKDSTYSLSSTLTLSKADYEKHKVYACEVTHQGLSSPVTKSFNRGEC	6.08 nM	70.5 fold over background
